Laboratory results as given in patent US20180044415A1 (AbbVie / Abbott, published 2018).
Positions count from the first letter of the chain named.

T1: human DLL3 (immobilized human DLL3 or h293-hDLL3 cells) (human, UniProt Q9NYJ7 27-492, limits assumed)
T1 construct: the sentence says 'immobilized human DLL3 or h293-hDLL3 cells'
T1 sequence: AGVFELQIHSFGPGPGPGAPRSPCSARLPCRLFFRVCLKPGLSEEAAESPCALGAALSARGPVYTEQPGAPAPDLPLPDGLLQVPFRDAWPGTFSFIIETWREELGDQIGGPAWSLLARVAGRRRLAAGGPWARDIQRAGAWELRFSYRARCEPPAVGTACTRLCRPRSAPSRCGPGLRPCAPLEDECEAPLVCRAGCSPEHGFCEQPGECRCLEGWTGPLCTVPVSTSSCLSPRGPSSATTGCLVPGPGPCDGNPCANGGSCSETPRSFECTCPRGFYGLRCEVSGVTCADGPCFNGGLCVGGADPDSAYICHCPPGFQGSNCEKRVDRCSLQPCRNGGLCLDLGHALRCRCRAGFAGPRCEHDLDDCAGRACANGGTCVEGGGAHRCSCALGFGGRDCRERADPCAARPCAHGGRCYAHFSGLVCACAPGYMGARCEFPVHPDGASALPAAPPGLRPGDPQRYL

B1: SC16.65 (antibody, V domains shown)
VH: QVTLKESGPGILQPSQTLSLTCSFSGFSLSTSGMGVGWIRQPSGKGLEWLALIWWDDVKRYNPALKSRLTISKDASSSQVFLKIASVDTADTATYYCARIASYDYDVVYAMDYWGQGTSVSVSS
VL: QIVLTQSPALMSASPGEKVTMTCSVTSSVSYMYWYQQKPRSSPKPWIYLTSNLASGVPARFSGSGSGTSYSLTISSVEAEDAATYYCQQWRNNPFTFGSGTKVEIK
notes: murine mAb; variable regions only
B2: SC16.55 (antibody, V domains shown)
VH: EVQLVESGGGLVQPKGSLKLSCAVSAFTFTTYAMNWVRQAPGKGLEWVARIRNKSNNYATYYADSVKDRFTISRDDSQSMLYLQMNNLKIEDTAMYYCVFYYDYVYWGQGTLVTVSA
VL: DIKMTQSPSSMYASLGERVTITCKASQDINSYLNWFQQKPGKSPKTLIYRANRLVDGVPSRFSGSGSGQDYSLTISSLEYEDMGIYYCLQYDEFPYTFGGGTKLEIK
notes: as for B1
B3: SC16.67 (antibody, V domains shown)
VH: B2 VH with S7T
VL: QAVVTQESALTTSPGETVTLTCRSSTGAVTTSNYANWIQEKPDHLFTGLIGGTNNRAPGVPARFSGSLIGDKAALTITGAQTEDEAIYFCGLWYSNHLVFGGGTKLTVL
notes: as for B1
B4: SC16.78 (antibody, V domains shown)
VH: EVKLVESGGGLVKPGGSLKLSCAASGFTFGRYVMSWVRQTPEKKLEWVASITSGGTTYYPDSVKGRFTISRDNARNILYLQMSSLRSEDTAMYYCARVYYHYDDIFAYWGQGTLVTVSA
VL: B2 VL with N34S, K42R, E79D, Y96F, G100S
notes: as for B1
B5: SC16.62 (antibody, V domains shown)
VH: EVMLVESGGDLVKPGGSLKLSCAASGFTFSSYAMSWVRQTPEKRLEWVAYISGGGDHIYYPDSVRGRFTISRDNAKDTLYLQMSSLRSEDTALYDCARVRDWYFDVWGAGTTVTVSS
VL: B2 VL with Y32F, N34S, Q38R, S63T, D70E, Y71F, M83L
notes: as for B1
B6: SC16.52 (antibody, V domains shown)
VH: QVQLKESGPGLVAPSQSLSITCAVSGFSLTSFAIHWFRKPPGKGLEWLGVIWTGGTTNYNSALMSRLSISKDNSKSQVFLKMNSLQTDDTAMYYCARDDYDNNYAMDYWGQGTSVTVSS
VL: DIQMIQSPSSMFASLGDRVSLSCRASQGIRGTLDWYQQKPNGTIKLLIYSTSNLNSGVPSRFSGSGSGSDYSLTISSLESEDFADYYCLQRNAYPLTFGAGTKLELK
notes: as for B1
B7: SC16.81 (antibody, V domains shown)
VH: QVQLKESGPVLVAPSQSLSITCTVSGFSLTSYGVHWVRQPPGKGLEWLGVIWAGGSTNYNSALMSRLSISKDNSKSQVFLKMNSLQTDDTAMYYCAKQGNFYAMDYWGQGTSVTVSS
VL: QIVLTQSPAIMSASLGERVTLTCTASSSVSSSYLHWYQQKPGSSPKLWIYSTSNLASGVPTRFSGSGSGTSYSLRISSMEAEDAATYYCHQYNRSPLTFGAGTKLELK
notes: as for B1
B8: SC16.101 (antibody, V domains shown)
VL: B7 VL with L21M, T61A, G67E, R75T, S78N, N93H, L97F, A101S, L107I
V domain: QVTLKESGPGILQPSQTLSLTCSFSGFSLSTSGMGVGWIRQPSGKGLEWLAHIWWDDVKRYNPALKSRLTISKDASSSQVFLKIASVDTAETATYYCAHILDRAYYFDYWGQGTTLTVTS
notes: as for B1
B9: SC16.57 (antibody, V domains shown)
VH: EVKLVESGGDLVKPGGSLKLSCAASGFAFSSYDMSWVRQTPEKRLEWVATISSGGSYTYYPDSVKGRFTISRDNVRDTLYLQMSSLRSEDTALYYCARQAIGTYFDYWGQGTTLTVSS
VL: DIVMTQSHKFMSISVGDRVSITCKASQDVSIFVAWYQQKPGQSPKLLIYSASYRYTGVPDRFTGSGSGTDFIFTISSVQAEDLAVYYCQQHYGTPFTFGSGTKLKIR
notes: as for B1
B10: SC16.88 (antibody, V domains shown)
VH: QVQLQQSGAELARPGASVKLSCKASGYTCTSYWMQWVKQRPGQGLEWIGAIYPGDGDTRYTQKFKGKATLTADKSSSTAYMQLSSLASEDSAVYYCARGRRTEAWFAYWGQGTLVTVSA
VL: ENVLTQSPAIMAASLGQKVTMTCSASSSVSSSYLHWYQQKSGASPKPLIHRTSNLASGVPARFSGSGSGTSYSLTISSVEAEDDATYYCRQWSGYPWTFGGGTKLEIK
notes: as for B1
B11: SC16.72 (antibody, V domains shown)
VH: EVQLQQSGPELVKPGASVKMSCKASGYTFTSYVMHWVKQKPGQGLEWIGYINPYNDGTKYNEKFKGKATLTSDKSSSTAYMELSSLTSEDSAVYYCARLRSRAMDYWGQGTSVTVSS
VL: ENVLTQSPAIMSASLGEKVTMSCRASSSVNYMSWYQQKSDASPKLWIYYTSNLAPGVPARFSGSGSGNSYSLTISSMEGEDAATYYCQQFTSSPYTFGGGTKLEIK
notes: as for B1
B12: SC16.73 (antibody, V domains shown)
VH: QVQLQQSGAELMKPGASVKISCKANGYTFSSYWIEWLRQRPGHGLEWIGEILPGSDNSNYNEKFKGKATFTADTSSNTAYMQLSSLTSEESAVYYCTRGLRRDGSYYYVMEHWGQGTSVTVSS
VL: DIQMTQSPSSLSASLGERVSLTCRASQDIGYSLNWLQQEPDGTIKRLIYATSSLDSGVPKRFSGSRSGSDYSLTISSLESEDFVDYYCLQYASSPWTFGGGTKLEIK
notes: as for B1
B13: SC16.79 (antibody, V domains shown)
VH: EVQLQQSGPELVKPGASVKISCKTSGYTFTEYTMHWVKQSHGKSLEWIGGINPNNGGTSYNQKFKGKATLTVDKSSSTAYMELRSLTSEDSAVYYCARGPAWFAYWGQGTLVTVSA
VL: DIVMSQSPSSLAVSAGEKVTMSCKSSQSLLNSRTRKNYLAWYQQKPGQSPKLLIYWASTRESGVPDRFTGSGSGTDFTLTISSVQAEDLAVYYCKQSYNLYTFGGGTKLKIK
notes: as for B1
B14: SC16.103 (antibody, V domains shown)
VH: QVTLKESGPGILKPSQTLSLTCSFSGFSLSTSGMGIGWIRQPSGKGLEWLAHIWWDDDKYYNPSLKSQLTISKDSSRNQVFLKITSVDTADTATYYCARRGTAYYFDYWGQGTTLTVSS
VL: DIVLTQSPASLAVSLGQRATISCRASKSVSTSGYSYMHWYQQKPGQPPKLLIYLASNLESGVPARFSGSGSGTDFTLNIHPVEEEDAATYYCQHSRELPLTFGAGTKLELK
notes: as for B1
B15: SC16.61 (antibody, V domains shown)
VH: EVLLQRSGPDLVKPGASVTIPCKASGYTFTDYNMDWVKQSHGKSLEWIGNINTYNGGTIYNQKFKGKATLTVDKPSSTAYMELRSLTSEDTAVYYCARRLRYGGHYFDYWGQGTALTVSS
VL: DIVMTQSTSSLAMSVGQKVTMSCKSSQSLLNSSNQKNYLAWYQQEPGQSPKLLVSFASTRESGVPDRFTGSGSGTDFTLTISGVQAEDLAVYYCQQHYSIPLTFGAGTKLELK
notes: as for B1
B16: SC16.104 (antibody, V domains shown)
VH: QVQLKESGPDLVQPSQTLSLTCTVSGFSLTFYGVHWVRQPPGKGLEWVGTMGWDDKKYYNSALKSRLSISRDTSKNQVFLKLSSLQTEDTAMYYCTRGGTGFDYWGQGTTLTVSS
VL: QIVLSQSPAILSASPGEKVTMTCRASSSVSYIHWYRQKPGSSPKPWIYATSNLASGVPARFSGSGSGTSYSLTISRVEAEDAATYYCQQWSSNPPTFGAGTKLELK
notes: as for B1
B17: SC16.63 (antibody, V domains shown)
VH: QVQLQQSGTELLRPGASVKISCKATGYTFSSYWMEWVKQRPGHGLEWIGEILPGSGTTQYNEKFKGKATFTADTSSNTAYMHLSSLTSEDSAVYYCARGTNSLWGQGTLVTVSA
VL: QIVLTQSPAIMSASPGEKVTMTCSASSSVSYMYWYQQKSGTSPKRWIYDTSKLASGVPARFSGSGSGTSYSLTISSMEAEDAATYYCQQWSSNPYTFGGGTKLEIK
notes: as for B1
B18: SC16.58 (antibody, V domains shown)
VH: DVQLVESGGGLVQPGGSRKLSCAASGFTFSSFGMHWVRQAPEKGLEWVAYISSGSSNIYYADTVKGRFTISRDNPKNTLFLQMTSLRSEDTAMYYCARGYYGNYDAMDYWGQGTSVTVSS
VL: DIQMTQSPASLSSSVGETVTITCRASENIYSYLAWYQQKQGKSPQLLVYNAKTLAEGVPSRFSGSGSGTQFSLKINSLQPEDFGTYYCQHHYDSPLTFGAGTKLELR
notes: as for B1
B19: SC16.80 (antibody, V domains shown)
VH: EVQLQQSGPELVKPGGSKKISCKASGYSFTGYSMNWVKQSHGKNLEWIGLINPYSGGTIYNQKFKGKATLTVDKSSSTAYMELLSLTSEDSAVYYCARRSDYPLVYWGQGTLVTVSA
VL: ETTVTQSPASLSMAIGEKVTIRCITSTDIDDDMIWYQQKPGEPPKLLISEGNTLRPGVPSRFSSSGYGTDFVFTIENMLSEDVADYYCLKRDDLPYTFGGGTQVEIK
notes: as for B1
B20: SC16.84 (antibody, V domains shown)
VH: EVQLQQSGPELVKPGASMKISCKASGYSFTGYTMNWVKQSHGKNLEWIGLINPYNGGTTYNQKFKGKATLTVDKSSSTAYMELLSLTSEDSAVYYCALGYYGNYRRYFDVWGAGTTVTVSS
VL: DIQMTQSPSSLSASLGGKVTITCKASQDIKKYIAWYQHKPGKGPRLLIHYTSTLEPGIPSRFSGSGSGRDYSFSISNLEPEDIATYYCLQYDILWTFGGGTKLEIK
notes: as for B1

Target: T1, human DLL3 (immobilized human DLL3 or …)
Experiment: hybridoma screening on immobilized human DLL3 or on h293-hDLL3 cells

Binding result, binds:
B1
B2
B3
B4
B5
B6
B7
B8
B9
B10
B11
B12
B13
B14
B15
B16
B17
B18
B19
B20
